Assay results taken from publication PMC4615246.

Target: T1, LacI-CFP-Nup50 (human), Q9UKX7
T1 chain: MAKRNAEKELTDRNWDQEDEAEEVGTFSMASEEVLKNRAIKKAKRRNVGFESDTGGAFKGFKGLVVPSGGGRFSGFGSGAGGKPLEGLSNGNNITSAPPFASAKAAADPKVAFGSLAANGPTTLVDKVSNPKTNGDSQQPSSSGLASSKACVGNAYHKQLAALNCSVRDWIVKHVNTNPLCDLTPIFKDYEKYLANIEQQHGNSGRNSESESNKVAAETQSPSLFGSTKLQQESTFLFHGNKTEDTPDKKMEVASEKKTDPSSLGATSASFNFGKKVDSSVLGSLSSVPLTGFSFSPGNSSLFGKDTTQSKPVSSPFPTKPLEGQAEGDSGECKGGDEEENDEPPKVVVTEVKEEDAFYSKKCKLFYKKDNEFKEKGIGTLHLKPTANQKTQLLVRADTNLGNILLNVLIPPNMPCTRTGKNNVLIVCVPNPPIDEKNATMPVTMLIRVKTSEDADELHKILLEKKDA
Assay: LacI/LacO array recruitment in cells
Details: remark: other sources report otherwise

B1: Nup93 (endogenous), Q8N1F7 1-819 (natural protein)
chain: MDTEGFGELLQQAEQLAAETEGISELPHVERNLQEIQQAGERLRSRTLTRTSQETADVKASVLLGSRGLDISHISQRLESLSAATTFEPLEPVKDTDIQGFLKNEKDNALLSAIEESRKRTFGMAEEYHRESMLVEWEQVKQRILHTLLASGEDALDFTQESEPSYISDVGPPGRSSLDNIEMAYARQIYIYNEKIVNGHLQPNLVDLCASVAELDDKSISDMWTMVKQMTDVLLTPATDALKNRSSVEVRMEFVRQALAYLEQSYKNYTLVTVFGNLHQAQLGGVPGTYQLVRSFLNIKLPAPLPGLQDGEVEGHPVWALIYYCMRCGDLLAASQVVNRAQHQLGEFKTWFQEYMNSKDRRLSPATENKLRLHYRRALRNNTDPYKRAVYCIIGRCDVTDNQSEVADKTEDYLWLKLNQVCFDDDGTSSPQDRLTLSQFQKQLLEDYGESHFTVNQQPFLYFQVLFLTAQFEAAVAFLFRMERLRCHAVHVALVLFELKLLLKSSGQSAQLLSHEPGDPPCLRRLNFVRLLMLYTRKFESTDPREALQYFYFLRDEKDSQGENMFLRCVSELVIESREFDMILGKLENDGSRKPGVIDKFTSDTKPIINKVASVAENKGLFEEAAKLYDLAKNADKVLELMNKLLSPVVPQISAPQSNKERLKNMALSIAERYRAQGISANKFVDSTFYLLLDLITFFDEYHSGHIDRAFDIIERLKLVPLNQESVEERVAAFRNFSDEIRHNLSEVLLATMNILFTQFKRLKGTSPSSSSRPQRVIEDRDSQLRSQARTLITFAGMIPYRTSGDTNARLVQMEVLMN
B1 gave a percent of transfected cells showing colocalization of 28%.
